Source: publication PMC8080530, “Glucocorticoid receptor Thr524 phosphorylation by MINK1 induces interactions with 14-3-3 protein regulators” (The Journal of Biological Chemistry, 2021)
Non-standard residues stand in square brackets, D forms with d. Residues, ends and D or L forms follow the SMILES beside them. pT = C[C@@H](OP(=O)(O)O)[C@H](N)C(=O)O; pS = N[C@@H](COP(=O)(O)O)C(=O)O

Key:
14-3-3ζ = biological target: T1, 14-3-3ζ (Homo sapiens, UniProt P63104); test: FP assay with GR phosphorylated peptides and 14-3-3ζ; assay type: binding
T1 construct: Full-length expression and purification of 14-3-3; made in house; host or cells: E. coli BL21 (DE3)STAR
T1 sequence (P63104 1-245): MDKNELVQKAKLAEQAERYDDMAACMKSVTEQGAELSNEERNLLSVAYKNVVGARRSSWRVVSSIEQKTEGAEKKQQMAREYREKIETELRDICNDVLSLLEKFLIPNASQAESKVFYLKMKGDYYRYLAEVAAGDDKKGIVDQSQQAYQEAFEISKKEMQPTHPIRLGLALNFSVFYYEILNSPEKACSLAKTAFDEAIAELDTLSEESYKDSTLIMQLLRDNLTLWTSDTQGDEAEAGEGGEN
Procedure, shortened: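 Fluorescence polarization (ex 485/em 520 nm) was read in triplicate after 30-min RT incubation. Binding data were fitted to a standard Hill equation and expressed in mP units. The dynamic range (ΔmP) is the difference between bound and free peptide signals.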

14-3-3σ = biological target: T2, 14-3-3σ (Homo sapiens, UniProt P31947); test: FP assay with GR phosphorylated peptides and 14-3-3σ; assay type: binding; settings: FITC-labeled peptide titrated with 14-3-3σ, 30 min RT, triplicates
T2 construct: Full-length expression and purification of 14-3-3; made in house; host or cells: E. coli BL21 (DE3)STAR
T2 sequence (P31947 1-248): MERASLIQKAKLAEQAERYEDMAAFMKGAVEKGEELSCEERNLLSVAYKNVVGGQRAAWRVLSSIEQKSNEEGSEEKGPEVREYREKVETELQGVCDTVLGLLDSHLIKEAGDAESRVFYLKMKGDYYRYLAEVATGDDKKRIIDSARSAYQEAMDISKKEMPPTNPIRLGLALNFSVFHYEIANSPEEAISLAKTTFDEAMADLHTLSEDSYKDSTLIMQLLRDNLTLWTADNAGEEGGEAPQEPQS
Procedure: After 30-min incubation at RT, the plates were read on a plate reader PHERAstar (BMG LABTECH GmbH) for FP signal using […] and standard excitation (485 nm) and emission (520 nm). Measurements were performed as triplicates. Binding data were fit to a standard Hill equation using the software Genedata Screener. The figures were made using the software GraphPad Prism 8. FP data were expressed as millipolarization (mP) units, and the dynamic range (ΔmP) was the difference of the signals from the bound peptide and free peptide. Errors are the standard error of the fit.

[1] = system: GR–14-3-3 interaction in HEK293 and U2OS cells; test: Co-IP and far-Western blotting overlay of GR with 14-3-3 after cell stimulation; assay type: cell-based; settings: HEK293 and U2OS cells transfected with WT GR, overnight starvation; forskolin 20 µM for 30 min, calyculin A 50 nM for 10 min
Procedure: The interaction between the full-length GR and 14-3-3 was investigated in a cellular system to validate the relevance of the peptide studies.
The HEK293 and U2OS cell lines (American Type Culture Collection) were cultured in Dulbecco's modified Eagle's medium, supplemented with 10% fetal bovine serum and 1% penicillin-streptomycin (10,000 U/ml) at 37 °C in a 5% CO2 environment. For the Co-IP assay, 3 × 10^6 cells were seeded in a 15-cm cell culture dish. At 60 to 70% confluence, the HEK293 cells were transiently transfected with a mixture of 6-μg GFP-MINK1 or GFP-GR DNA and 24-μl lipofectamine 2000 in 2-ml Opti-MEM for 24 h. […]
(§1) Cells were collected and lysed in radioimmunoprecipitation assay buffer containing 50-mM Tris-HCl, pH 8, 150-mM NaCl, 1-mM EDTA, 0.1% SDS, 1% Na deoxycholate, and 1% NP-40 supplemented with a protease inhibitor cocktail. After lysis, the concentration of protein was quantified by the Bradford test. […]
(§2) Eluted proteins were resolved on a NuPAGE 4 to 12% Bis-Tris Protein Gels, 1.0 mm. […] After washing with TBST, the blots were detected using an Odyssey CLx Imaging system (LI-COR). […]
Samples containing proteins from the Co-IP assay or GR LBD in vitro phosphorylated were loaded on a NuPAGE 4 to 12% Bis-Tris Protein Gels, 1.0 mm, and separated. […] After washing with TBST, the blots were detected using an Odyssey CLx Imaging system (LI-COR). […]

[2] = system: MINK1–14-3-3 interaction in HEK293 cells; test: Co-IP and far-Western blotting overlay of MINK1 with 14-3-3 after cell stimulation; assay type: cell-based; settings: HEK293 cells transfected with GFP-MINK1; forskolin 20 µM for 30 min, calyculin A 50 nM for 10 min
Procedure: The HEK293 and U2OS cell lines (American Type Culture Collection) were cultured in Dulbecco's modified Eagle's medium, supplemented with 10% fetal bovine serum and 1% penicillin-streptomycin (10,000 U/ml) at 37 °C in a 5% CO2 environment. For the Co-IP assay, 3 × 10^6 cells were seeded in a 15-cm cell culture dish. At 60 to 70% confluence, the HEK293 cells were transiently transfected with a mixture of 6-μg GFP-MINK1 or GFP-GR DNA and 24-μl lipofectamine 2000 in 2-ml Opti-MEM for 24 h. At 60 to 70% confluence, the U2OS cells were transiently transfected with a mixture of 8-μg GFP-MINK1 or GFP-GR and/or FLAG-MINK1 DNA and 32-μl X-tremeGENE 9 DNA in 2 ml Opti-MEM for 24 h. Stimulation with forskolin, H89, IGF-1, and PI303 was preceded by a cell starvation step where the cells were incubated with DMEM without supplements overnight. […]
as §1, §2

[3] = biological target: human 14-3-3ζ, full length, 6His-Linker-h14-3-3 (human) (UniProt P63104); test: SPR; Biacore 3000; 6His-tagged 14-3-3 immobilised on an NTA chip (2000 RU 14-3-3ζ, 4000 RU 14-3-3σ); peptides injected in HBS P+ buffer with 1 or 3% DMSO, 20 μl/min; Hill fit; triplicates
[4] = biological target: GR_pT524-pS617 with P526 replaced by alanine (alanine scan) (human) (UniProt P04150); test: fluorescence polarisation; FITC-labelled peptide at 60 nM (monophosphorylated) or 10 nM (doubly phosphorylated) titrated with 14-3-3ζ or 14-3-3σ in dilution series from 300 μM or 150 μM; 30 min at RT; 384-well plate; Hill fit; triplicates
[5] = biological target: GR_pT524-pS617 with R614 replaced by alanine (alanine scan) (human) (UniProt P04150); test: as above
[6] = biological target: GR_pS524-pS617, FITC-labelled diphosphoserine analogue of GR_pT524-pS617 (human) (UniProt P04150); test: as above
[7] = biological target: GR_pS134, FITC-labelled 13-mer phosphopeptide (human) (UniProt P04150); test: as above
[8] = biological target: GR_pT524-pS617 with K518 replaced by alanine (alanine scan) (human) (UniProt P04150); test: as above
[9] = biological target: GR_pT524-pS617 with pT524 replaced by alanine (alanine scan) (human) (UniProt P04150); test: as above
[10] = biological target: GR_pT524-pS617, FITC-labelled 31-mer doubly phosphorylated peptide (human) (UniProt P04150); test: as above
[11] = biological target: GR_pS134-pT524, FITC-labelled 31-mer doubly phosphorylated peptide (human) (UniProt P04150); test: as above
[12] = biological target: GR_pT524-pT562, FITC-labelled 51-mer doubly phosphorylated peptide with the native sequence as a linker (human) (UniProt P04150); test: as above
GR_pT524-pT562, FITC-labelled 51-mer doubly phosphorylated peptide with the native sequence as a linker (human), sequence (P04150 518-568): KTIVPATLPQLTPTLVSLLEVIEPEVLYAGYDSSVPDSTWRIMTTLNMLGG

[13] = biological target: GR_pT524-pS617 with pS617 replaced by alanine (alanine scan) (human) (UniProt P04150); test: as above

GR_pT524-pT562, 51-mer doubly phosphorylated peptide used for SPR, sequence (P04150 518-568): as above

CC[C@H](C)[C@H](NC(=O)[C@@H](NC(=O)[C@H](CCCCN)NC(C)=O)[C@@H](C)O)C(=O)N[C@H](C(=O)N1CCC[C@H]1C(=O)N[C@@H](C)C(=O)N[C@H](C(=O)N[C@@H](CC(C)C)C(=O)N1CCC[C@H]1C(=O)N[C@@H](CCC(N)=O)C(=O)N[C@@H](CC(C)C)C(=O)N[C@H](C(=O)N1CCC[C@H]1C(=O)NCC(=O)NCC(=O)NCC(=O)NCC(=O)NCC(=O)N[C@@H](CCCNC(=N)N)C(=O)N[C@@H](CO)C(=O)N[C@@H](Cc1ccc(O)cc1)C(=O)N[C@@H](CCCNC(=N)N)C(=O)N[C@@H](CCC(N)=O)C(=O)N[C@@H](CO)C(=O)N[C@@H](COP(=O)(O)O)C(=O)N[C@@H](C)C(=O)N[C@@H](CC(N)=O)C(=O)N[C@@H](CC(C)C)C(=O)N[C@@H](CC(C)C)C(=O)N[C@@H](CS)C(=O)N[C@@H](Cc1ccccc1)C(=O)O)[C@@H](C)O)[C@@H](C)OP(=O)(O)O)C(C)C [GR_pT524-pS617] (Ac-KTIVPA[pT]LPQLTPGGGGGRSYRQS[pS]ANLLCF-OH)
Kd (14-3-3ζ; FP, doubly phosphorylated 31-mer peptides, triplicates, read-out: Kd with 14-3-3ζ (values in nM)): 18 nM
fold improvement of binding affinity with 14-3-3ζ compared with the individual monomers (14-3-3ζ; avidity effect of dimeric peptide): 1000 fold
Kd (14-3-3σ): 53 ± 26 nM

COC[C@@H]([C@H](O)[C@H](O)C(=O)NCC[C@H](C)c1nc(/C=C/C[C@@H]2O[C@]3(C[C@@H](O)[C@@H]2C)O[C@H]([C@H](C[C@H](O)[C@H](C)[C@H](O)[C@H](C)/C=C(C)/C(C)=C/C=C/C(C)=C\C#N)OC)[C@H](OP(=O)(O)O)C3(C)C)co1)N(C)C [calyculin A]
GR interaction with 14-3-3 proteins upon stimulation [1]: GR interacted with 14-3-3 proteins
MINK1 interaction with 14-3-3 upon stimulation [2]: MINK1 also interacts with 14-3-3

C=C[C@@]1(C)CC(=O)[C@]2(O)[C@@]3(C)[C@@H](O)CCC(C)(C)[C@@H]3[C@H](O)[C@H](OC(C)=O)[C@@]2(C)O1 [forskolin]
GR interaction with 14-3-3 proteins upon stimulation [1]: GR interacted with 14-3-3 proteins
MINK1 interaction with 14-3-3 upon stimulation [2]: MINK1 also interacts with 14-3-3

GR_pT524-pT562, 51-mer doubly phosphorylated peptide used for SPR (from UniProt P04150 518-568)
Kd [3]: 15000 nM

human 14-3-3ζ, full length, 6His-Linker-h14-3-3 (from UniProt P63104 1-245) (natural protein)
Kd [4]: 1200 nM
Kd [5]: 220 nM
Kd [6]: 140 nM
Kd [7]: 90000 nM
Kd [8]: 110 nM
Kd [9]: 120000 nM
Kd [10]: 18 nM
Kd [11]: 550 nM
Kd [12]: 23000 nM
Kd [13]: 1300 nM
